According to US20100255006A1 (Takeda / Millennium, published 2010):

Key:
[1] = target: caspase-1 as expressed in the IL-1β secretion assays (UniProt P29466); test: cell-based or functional assay
[2] = target: CARD-5 (ASC) as expressed in the NF-kB and IL-1β secretion assays (UniProt Q9ULZ3 1-195); test: cell-based or functional assay
[3] = target: T1, CARD of caspase-1 (mammalian two-hybrid construct) (UniProt P29466 1-91); test: mammalian two-hybrid in 293T cells, pFR-Luc firefly reporter
T1 construct: domain: CARD; also called the CARD of caspase-1; not shown: two-hybrid fusion partner from a pCMV/AD or pCMV/BD plasmid
T1 sequence (looked up): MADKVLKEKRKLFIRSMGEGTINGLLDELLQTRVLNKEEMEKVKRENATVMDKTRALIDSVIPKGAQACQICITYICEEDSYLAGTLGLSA
Method: CARD-5 is a relatively small protein containing an N-terminal PYRIN domain and a C-terminal CARD domain (see, e.g., Masumoto et al. (1999) J. Biol. Chem. 274:33835-38). To identify whether the CARD domain of a CARD-containing protein interacted with the CARD of CARD-5, mammalian two-hybrid analysis was carried out using the CARD domains of 22 CARD-containing proteins (FIG. 13A). Mammalian two-hybrid assays were performed as described by Wang et al. (2001) J. Biol. Chem. 276:21405-21409. 293T cells were transfected with pCMV/AD and pCMVIBD plasmids, pFR-Luc firefly reporter (Stratagene), and pRL-TK Renilla reporter (Promega).

**Q.** For “CARD-5 (ASC) as expressed in the NF-kB and IL-1β secretion assays (from UniProt Q9ULZ3 1-195)”, which secreted IL-1β (ELISA of supernatants of COS-7L cells co-transfected with mouse pro-IL-1β) [1] is on record?
**A.** 150 to 400 pg/mL

B1: full-length PYRIN-8 (PYRIN-8-FL, residues 1-1061 of SEQ ID NO:18) with a C-terminal FLAG epitope (other, not shown: small tags and cut ends)
chain: MLRTAGRDGLCRLSTYLEELEAVELKKFKLYLGTATELGEGKIPWGSMEKAGPLEMAQLLITHFGPEEAWRLALSTFERINRKDLWERGQREDLVRDTPPGGPSSLGNQSTCLLEVSLVTPRKDPQETYRDYVRRKFRLMEDRNARLGECVNLSHRYTRLLLVKEHSNPMQVQQQLLDTGRGHARTVGHQASPIKIETLFEPDEERPEPPRTVVMQGAAGIGKSMLAHKVMLDWADGKLFQGRFDYLFYINCREMNQSATECSMQDLIFSCWPEPSAPLQELIRVPERLLFIIDGFDELKPSFHDPQGPWCLCWEEKRPTELLLNSLIRKKLLPELSLLITTRPTALEKLHRLLEHPRHVEILGFSEAERKEYFYKYFHNAEQAGQVFNYVRDNEPLFTMCFVPLVCWVVCTCLQQQLEGGGLLRQTSRTTTAVYMLYLLSLMQPKPGAPRLQPPPNQRGLCSLAADGLWNQKILFEEQDLRKHGLDGEDVSAFLNMNIFQKDINCERYYSFIHLSFQEFFAAMYYILDEGEGGAGPDQDVTRLLTEYAFSERSFLALTSRFLFGLLNEETRSHLEKSLCWKVSPHIKMDLLQWIQSKAQSDGSTLQQGSLEFFSCLYEIQEEEFIQQALSHFQVIVVSNIASKMEHMVSSFCLKRCRSAQVLHLYGATYSADGEDRARCSAGAHTLLVQLPERTVLLDAYSEHLAAALCTNPNLIELSLYRNALGSRGVKLLCQGLRHPNCKLQNLRLKRCRISSSACEDLSAALIANKNLTRMDLSGNGVGFPGMMLLCEGLRHPQCRLQMIQLRKCQLESGACQEMASVLGTNPHLVELDLTGNALEDLGLRLLCQGLRHPVCRLRTLWLKICRLTAAACDELASTLSVNQSLRELDLSLNELGDLGVLLLCEGLRHPTCKLQTLRLGICRLGSAACEGLSVVLQANHNLRELDLSFNDLGDWGLWLLAEGLQHPACRLQKLWLDSCGLTAKACENLYFTLGINQTLTDLYLTNNALGDTGVRLLCKRLSHPGCKLRVLWLFGMDLNKMTHSRLAALRVTKPYLDIGC
**Q.** With B1 as the molecule, how does the “NF-kB activity (relative luciferase activity, pNF-kB-Luc reporter in 293T cells)” value [2] read?
**A.** 150 fold

B2: CARD of CARD-5 (mammalian two-hybrid construct) (other, UniProt Q9ULZ3 107-195, looked up)
chain: AAKPGLHFIDQHRAALIARVTNVEWLLDALYGKVLTDEQYQAVRAEPTNPSKMRKLFSFTPAWNWTCKDLLLQALRESQSYLVEDLERS
notes: domain: CARD; also called CARD domain of CARD-5; the CARD of CARD-5 (ASC); not shown: two-hybrid fusion partner from a pCMV/AD or pCMV/BD plasmid
**Q.** How did the “fold activation of luciferase activity (mammalian two-hybrid)” value [3] turn out when B2 was run?
**A.** 24 fold
